{
  "source": "patent US20230203138A1",
  "target": "SARS-CoV-2 spike trimer (S trimer), soluble ectodomain (SARS-CoV-2), P0DTC2",
  "assay": "cryo-EM structure of Fab 2-4 with S trimer",
  "settings": "remark: other sources report otherwise",
  "data": [
    {"binder": "Fab of antibody 2-4 (Fab, V domains shown) VH: QVQLVQSGAEVKKPGASVKVSCKASGYTFTGYYMHWVRQAPGQGLEWMGWINPNSGGTNYTQMFQGRVTMTRDTSISTAYMEVSRLRSDDTAVYYCARDRSWAVVYYYMDVWGKGTTVTVSS VL: QSALTQPPSASGSPGQSVTISCTGTSSDVGGYNYVSWYQQHPGKAPKLMIYEVSKRPSGVPDRFSGSKSGNTASLTVSGLQAEDEADYYCSSYAGSNNLVFGGGTKLTVL", "values": [
      {"measurement": "buried surface area of the epitope on RBD", "result": 751, "unit": "A2"}
    ]}
  ]
}
